Test results published in paper PMC6138654.

Target: αβ-tubulin (tubulin dimer; as free tubulin, Tau-induced microtubules or Taxol-stabilized microtubules) (lamb (purified from lamb brains))

Tau F4 fragment labeled with MTSL (F4^MTSL), sequence (P10636 525-641): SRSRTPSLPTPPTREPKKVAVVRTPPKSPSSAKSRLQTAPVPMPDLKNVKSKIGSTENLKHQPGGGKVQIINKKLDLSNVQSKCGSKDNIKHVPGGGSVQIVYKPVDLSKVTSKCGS

k of MTSL label release (thiol-disulfide exchange) by EPR, h(−1)/h(0) against time; Tau-MTs (induced), 10 µM labeled protein, 1:2 with tubulin, 37 °C	k of MTSL label release (thiol-disulfide exchange) by EPR, h(−1)/h(0) against time; Induced-MTs, 10 µM labeled protein, 1:2 with tubulin, 37 °C	k of MTSL label release (thiol-disulfide exchange) by EPR, h(−1)/h(0) against time; Taxol-MTs, 10 µM labeled protein, 1:2 with tubulin, 37 °C	Substance
0.127 min⁻¹			Tau F4 fragment C322S mutant labeled with MTSL on C291 (C291^MTSL) (from UniProt P10636-8 208-324) (domain or fragment)
	0.217 min⁻¹	0.025 min⁻¹	Tau F4 fragment labeled with MTSL (F4^MTSL) (from UniProt P10636-8 208-324) (domain or fragment)
0.077 min⁻¹			Tau F4 fragment C291S mutant labeled with MTSL on C322 (C322^MTSL) (from UniProt P10636-8 208-324) (domain or fragment)
